Results taken from publication PMC3462190, “A Peptidic Unconjugated GRP78/BiP Ligand Modulates the Unfolded Protein Response and Induces Prostate Cancer Cell Death” (PLoS ONE, 2012).
Where no end group is shown, it is not given here.

B1: Bag-1: cochaperone Bag-1, HA-tagged (pcDNA3.1-HA-Bag-1), or endogenous (protein)
chain: TPLSALGIQDGCRVMLIGKKNSPQEEVELKKLKHLEKSVEKIADQLEELNKELTGIQQGFLPKDLQAE
modifications: left off: HA, end not stated, kept
notes: cochaperone Bag-1, HA-tagged (pcDNA3.1-HA-Bag-1), or endogenous
B2: Bag-1 peptide: internal sequence of 68 amino acids of Bag-1 (Bag1-L 202–269), HA-tagged, expressed from pcDNA3 (peptide)
chain: B1 chain
modifications: also: HA tag, end not given here

These molecules were tested on GRP78/BiP (assay: In vivo luciferase refolding assay in HEK-293 cells). Settings: heat shock 45°C 30 min, relative to non-heat-shocked cells, mean of three independent experiments ± SEM.
Type: cell-based
Procedure: In vivo refolding assay was performed essentially according to the method described by. HEK-293 in a 70%-confluent 10 cm dish were transfected with β-actin-fire fly luciferase construct (2 µg), pcMV6-GRP78 (3 µg), Bag-1 or Bag-1 peptides in pcDNA3.1-HA (6 µg) and Renilla luciferase construct (0.5 µg) for equal transfection control. Two days after transfection the cells were divided into two and incubated in heat shock buffer (MOPS 20 mM and cycloheximide 20 µg/ml) for 30 min at 37°C. One half of the transfected cells was heat shocked for 30 min at 45°C and allowed to recover at 37°C for 30 min. The other half was left untreated and used as control. At the end of the experiments, the cells were harvested, lysed and luciferase activity was measured. The activity measured for the non-heat shocked cells was set as 100% of refolded luciferase and the activity measurements of the heat shocked cells were expressed relative this value.
Figure 2 Identification of Bag-1 peptide interfering with the action of GRP78/BiP. […] Depicted in blue and red are the ubiquitin-like domain and the BAG domain respectively. B. Identification of the Bag-1 peptide binding to GRP78/BiP. […] Western blot analysis with an HA antibody to detected the Bag-1 mutants is shown. […] Thereafter luciferase activity was measured. Results are expressed as percentage of refolding activity relative to non-heat-shocked cells and presented as bar charts of the average of three independent experiments ± SEM. *p<0.05.
Figure 6 Selectivity of action of the Bag-1 peptide. […] Fluorescence polarization (FP) assays with a 10 nM FITC-labeled 7-mer Bag-1 peptide and dilutions of the GST-fused substrate binding domain of GRP78 in 60 µl of Tris-GSH buffer (50 mM Tris, 10 mM reduced glutathione and 0.1% BSA, pH 8.0). Triplicate samples were measured after 5 h of incubation at room temperature with an Infinite F-200 reader (Tecan) with excitation at 490 nm and emission at 535 nm. Binding constants were determined from three independent experiments using non-linear regression in Sigma Plot 10.0. […]
With “19-mer: Bag-1L 202–220 (TPLSALGIQDGCRVMLIGK; not fully specified)” the “GRP78/BiP refolding activity (luciferase)” value (“GRP78/BiP refolding activity” below) was “inhibited the ability of GRP78/BiP to refold denatured protein”.
In the case of B1, the “GRP78/BiP refolding activity” value is reported as “reduced to the control level”.
For B2, the “GRP78/BiP refolding activity” value was “reduced to the control level”.
